One molecule from patent EP3069729A1 (Sequoia Sciences, Inc., dated 2016) can be followed below.

The target in the test is T1, horseradish peroxidase (HRP) (UniProt P00433 31-338).
T1 sequence: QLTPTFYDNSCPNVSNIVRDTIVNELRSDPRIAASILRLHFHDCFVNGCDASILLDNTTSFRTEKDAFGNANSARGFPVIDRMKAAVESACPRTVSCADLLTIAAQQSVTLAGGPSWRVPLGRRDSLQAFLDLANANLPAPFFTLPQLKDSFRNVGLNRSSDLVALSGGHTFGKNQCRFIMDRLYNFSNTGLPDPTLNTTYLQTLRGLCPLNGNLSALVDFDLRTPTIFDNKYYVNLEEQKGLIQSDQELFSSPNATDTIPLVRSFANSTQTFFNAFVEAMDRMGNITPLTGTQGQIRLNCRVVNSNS
In words: in vitro mannose binding potency assay; inferred from the Q133K FimCH complex.

B1: FimC (other)
chain: GVALGATRVIYPAGQKQVQLAVTNNDENSTYLIQSWVENADGVKDGRFIVTPPLFAMKGKKENTLRILDATNNQLPQDRESLFWMNVKAIPSMDKSKLTENTLQLAIISRIKLYYRPAKLALPPDQAAEKLRFRRSANSLTLINPTPYYLTVTELNAGTRVLENALVPPMGESAVKLPSDAGSNITYRTINDYGALTPKMTGVME
notes: also called FimC protein
Turning to B1, the binding result is reported as “no binding”.
